{
  "source": "patent US11981714B2",
  "about": "“CCR5 and CD4 siRNA-targeted phospholipid nanosomes therapeutics for treatment of HIV-1 and other diseases” (priority 2020, dated 2024)",
  "test_system": "HIV-1 RF, NIH Cat #2804",
  "assay": "Infectivity assay by BFUs on MAGI P4/R5 cells with and without lipofectamine (RNA-I-61)",
  "format": "cell-based",
  "details": "naked (unencapsulated), Presence of Lipofectamine",
  "protocol": "A knockdown study (RNA-I-61) of the 8 nanoencapsulated and the corresponding unencapsulated (naked) siRNA preparations along with two controls described in the previous experiments was performed using freshly reconstituted materials with HIV-1 RF, NIH Cat #2804, diluted to contain ˜100 Blue Focus forming Units (BFUs) per dose of inoculum. […] The objective of this experiment was to test a range of concentrations of the inhibitors to determine the ID50 for each preparation based on the siRNA content. Since the nanosomal materials were freshly reconstituted, they were recharacterized.\nThe reconstituted samples as well as the naked siRNA preparations were tested for virus infection inhibitory activity. The inhibition of infectivity was measured by counting the number of blue foci due to the induced β-galactosidase activity in the host MAGI P4/R5 cells by the infecting HIV. […] The number of BFUs for each treatment at various dilutions were used to calculate the % inhibition from the corresponding dilution for the Negative_siRNA samples. The inhibitor activity was also quantified by measuring the p24 antigen concentration in each of the wells.\nInfectivity Assay by BFUs: The percent inhibitions obtained with various Nanosomal_siRNA formulations versus Negative_siRNA formulations in the presence of lipofectamine are listed in Table 12.\n50% Inhibitory Dose (ID50) Values: The data from RNA quantification using gel analysis and the infectivity results were used to plot dose response curves and calculate the ID50 (a.k.a. Inhibitory Concentration that results in 50% inhibition, [IC50]) values.",
  "data": [
    {"molecule": "RANTES: CC chemokine, molecular weight 7,900, natural ligand of CCR5; unencapsulated in Table 13 (protein, UniProt P13501 24-91, looked up) C-C motif chemokine 5: SPYSSDTTPCCFAYIARPLPRAHIKEYFYTSGKCSNPAVVFVTRKNRQVCANPEKKWVREYINSLEMS", "values": [
      {"measurement": "Inhibition of BFUs by Naked_siRNA vs Negative_siRNA", "setting": "Treatment Dilution 1", "result": 0, "unit": "%"},
      {"measurement": "Inhibition of BFUs by Naked_siRNA vs Negative_siRNA", "setting": "Treatment Dilution 5", "result": 34, "unit": "%"},
      {"measurement": "Inhibition of BFUs by Naked_siRNA vs Negative_siRNA", "setting": "Treatment Dilution 15", "result": 18, "unit": "%"},
      {"measurement": "Inhibition of BFUs by Naked_siRNA vs Negative_siRNA", "setting": "Treatment Dilution 45", "result": 0, "unit": "%"},
      {"measurement": "Inhibition of BFUs by Naked_siRNA vs Negative_siRNA", "setting": "Treatment Dilution 135", "result": 0, "unit": "%"}
    ]}
  ]
}
